In this test the target is T1, Kv1.3 (human potassium voltage-gated channel subfamily A member 3) (human, UniProt P22001 1-575).
T1 construct: whole, on cells
Put plainly: immunofluorescence staining of Kv1.3 expressing HEK293F cells, flow cytometry. Background: In flow cytometry, cells or beads pass a laser one at a time.

Data on one molecule can be found in patent US20200190151A1 (Scripps Research, published 2020).

No end group written: not given here.

T1 sequence (P22001 whole entry): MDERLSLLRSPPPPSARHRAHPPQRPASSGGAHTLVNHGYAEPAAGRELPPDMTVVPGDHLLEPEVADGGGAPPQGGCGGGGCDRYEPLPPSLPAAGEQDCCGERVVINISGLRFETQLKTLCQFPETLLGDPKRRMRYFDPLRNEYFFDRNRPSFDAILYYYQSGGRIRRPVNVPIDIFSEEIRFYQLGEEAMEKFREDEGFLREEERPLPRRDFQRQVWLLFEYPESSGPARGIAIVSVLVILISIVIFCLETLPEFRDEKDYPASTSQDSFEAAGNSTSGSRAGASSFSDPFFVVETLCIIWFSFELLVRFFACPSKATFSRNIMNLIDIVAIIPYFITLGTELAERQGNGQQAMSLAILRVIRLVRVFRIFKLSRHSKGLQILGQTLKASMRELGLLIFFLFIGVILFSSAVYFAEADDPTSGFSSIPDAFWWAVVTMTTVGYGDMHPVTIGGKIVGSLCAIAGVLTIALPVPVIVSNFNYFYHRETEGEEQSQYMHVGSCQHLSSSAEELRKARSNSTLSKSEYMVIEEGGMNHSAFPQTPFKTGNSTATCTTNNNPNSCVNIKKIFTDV

B1: CllTx1-Fc fusion protein (Fc fusion)
chain: ITINVKCTSPQQCLRPCKDRFGQHAGGKCINGKCKCYP
modifications: ends and bridges not checked; also: fused to human IgG1 Fc fragment, limits and linker not given here
notes: mature; also called recombinant CllTx1-Fc fusion protein; not shown: human IgG1 Fc fragment
Turning to B1, the binding result was “binds”.
